Consider two molecules from paper PMC5708649 (PLoS ONE, 2017).

The experiment has as its target inactive E433A variant of full-length PgDPP III (Porphyromonas gingivalis W83, UniProt Q7MX92 1-886, E433A). Put plainly: ITC. The note with it: both partners purified.

B1: tynorphin (peptide)
peptide: VVYPW
notes: also called VVYPW; pentapeptide tynorphin
B1: the binding result was “binds”.
In the case of IVYPW it was “binds”.
